Results published in publication doi:10.1101/2020.12.07.415216.

Molecular target: SARS-CoV-2 RBD homotrimer (RBD appended onto a cystine-stabilized, hyperglycosylated GCN4 trimerization tag) (SARS-CoV-2)
Experiment: SDS-PAGE under non-reducing conditions

Substance “SARS-CoV-2 RBD homotrimer (RBD appended onto a cystine-stabilized, hyperglycosylated GCN4 trimerization tag)” has a stoichiometry N of 3.
